According to publication PMC7858651, “Modulation of Increased mGluR1 Signaling by RGS8 Protects Purkinje Cells From Dendritic Reduction and Could Be a Common Mechanism in Diverse Forms of Spinocerebellar Ataxia” (Frontiers in Cell and Developmental Biology, 2020):

Experiments:
[1] = target: T1, PKCγ(S361G)-tGFP (human, UniProt P05129 1-697, S361G); assay: co-IP; HEK293T cells expressing mGluR1, transfected with PKCγ-tGFP, PKCγ(S361G)-tGFP or tGFP alone; tGFP trap agarose beads (Chromotek); IPs blotted with anti-mGluR1 and anti-tGFP; amounts quantified and normalised to wild-type PKCγ-tGFP; settings: partners not purified
T1 construct: Protein Kinase C gamma (PKCγ) with the SCA14-associated human mutation S361G; plasmid pCMV-PKCγ(S361G)-tGFP, a gift (Shimobayashi and Kapfhammer, 2017); also called mutated PKCγ(S361G); mutant PKCγ(S361G); source: HEK293T, transfected (pCMV-PKCγ(S361G)-tGFP), in lysate

[2] = target: T2, wild-type PKCγ-tGFP (UniProt P05129 1-697); assay: as above; settings: partners not purified
T2 construct: Protein Kinase C gamma (PKCγ), wild type; plasmid pCMV-PKCγ-tGFP, a gift (Shimobayashi and Kapfhammer, 2017); also called WT PKCγ; source: HEK293T, transfected (pCMV-PKCγ-tGFP), in lysate

relative amount bound, normalised to wild-type PKCγ-tGFP [1]: 1.26 relative to wild-type PKCγ-tGFP | relative amount bound, normalised to wild-type PKCγ-tGFP [2]: 1 relative to wild-type PKCγ-tGFP
B1: metabotropic glutamate receptor 1 (mGluR1) (receptor, UniProt P97772 21-1199, looked up)
chain: RMPDRKVLLAGASSQRSVARMDGDVIIGALFSVHHQPPAEKVPERKCGEIREQYGIQRVEAMFHTLDKINADPVLLPNITLGSEIRDSCWHSSVALEQSIEFIRDSLISIRDEKDGLNRCLPDGQTLPPGRTKKPIAGVIGPGSSSVAIQVQNLLQLFDIPQIAYSATSIDLSDKTLYKYFLRVVPSDTLQARAMLDIVKRYNWTYVSAVHTEGNYGESGMDAFKELAAQEGLCIAHSDKIYSNAGEKSFDRLLRKLRERLPKARVVVCFCEGMTVRGLLSAMRRLGVVGEFSLIGSDGWADRDEVIEGYEVEANGGITIKLQSPEVRSFDDYFLKLRLDTNTRNPWFPEFWQHRFQCRLPGHLLENPNFKKVCTGNESLEENYVQDSKMGFVINAIYAMAHGLQNMHHALCPGYVGLCDAMKPIDGRKLLDFLIKSSFVGVSGEEVWFDEKGDAPGRYDIMNLQYTEANRYDYVHVGTWHEGVLNIDDYKIQMNKSGMVRSVCSEPCLKGQIKVIRKGEVSCCWICTACKENEFVQDEFTCRACDLGWWPNAELTGCEPITIRYLEWSDIESIIAIAFSCLGILVTLFVTLIFVLYRDTPVVKSSSRELCYIILAGIFLGYVCPFTLIAKPTTTSCYLQRLLVGLSSAMCYSALVTKTNRIARILAGSKKKICTRKPRFMSAWAQVIIASILISVQLTLVVTLIIMEPPMPILSYPSIKEVYLICNTSNLGVVAPVGYNGLLIMSCTYYAFKTRNVPANFNEAKYIAFTMYTTCIIWLAFVPIYFGSNYKIITTCFAVSLSVTVALGCMFTPKMYIIIAKPERNVRSAFTTSDVVRMHVGDGKLPCRSNTFLNIFRRKKPGAGNANSNGKSVSWSEPGGRQAPKGQHVWQRLSVHVKTNETACNQTAVIKPLTKSYQGSGKSLTFSDASTKTLYNVEEEDNTPSTHFSPPSSPSMVVHRRGPPVATTPPLPPHLSAEETPLFLADSVIPKGLPPPLPQQQQQPPPQPPPQQPKSLMDQLQGVVTNFGSGIPDFHAVLAGPGTPGNGLRSLYPPPPPPQHLQMLPLQLSTFREEPISPPGEDDDDDSSERFKLLQEFVYEREGNTEEDDLEEEEDLPAASKLTPEDSPALTPPSPFRDSVASGSSVPSSPVSESVLCTPPNVTYASVILRDYKQSSSTL
notes: metabotropic glutamate receptor 1 (mGluR1), expressed from the vector pCMV-mGluR1 bought from Origene; source: HEK293T, transfected (pCMV-mGluR1, Origene), in lysate
